Data set [1] concerns the molecule itself. Kind of data set: SDS-PAGE oligomerization assay with immunoblot. (In general: A western blot detects proteins with antibodies after separation by electrophoresis.)
Data set [2] deals with the molecule itself. Kind of data set: SDS-PAGE oligomerization assay.
Data set [3] deals with the molecule itself. Nature of the data set: SDS-PAGE oligomerization assay. The source holds these as a separate data set.

Residue numbers refer to the chain shown, from its start. Names and notes keep the numbering of the source. Values joined by “and” are separate entries in the source; they are usually repeats but may differ in a detail not shown here. Identical values can stand only once. Where only a bound is given, the exact number is not on record here.

One may read the stoichiometry N as the number of molecules, sites or subunits per partner or assembly.

B1: wild-type phospholamban (natural protein, dog, UniProt P61012 1-52, looked up)
chain: MDKVQYLTRSAIRRASTIEMPQQARQNLQNLFINFCLILICLLLICIIVMLL
On to B1, for which the “stoichiometry N” value in data set [1] was 2 and 4 and ~6; in data set [2], more than 6; in data set [3] it was 5.

B2: L39A mutant of C41L-PLB (natural protein, dog, UniProt P61012 1-52, looked up)
chain: B1 chain with L39A, C41L
Take B2: the “stoichiometry N” value in data set [1] stood at 4.

B3: L42A mutant of C41L-PLB (natural protein, dog, UniProt P61012 1-52, looked up)
chain: B1 chain with C41L, L42A
As to B3, in data set [1], the “stoichiometry N” value came to 4.

B4: C41L-PLB (natural protein, dog, UniProt P61012 1-52, looked up)
chain: B1 chain with C41L
In the case of B4, the “stoichiometry N” value in data set [1] is 4.

B5: I38A mutant of C41L-PLB (natural protein, dog, UniProt P61012 1-52, looked up)
chain: B1 chain with I38A, C41L
For B5, the “stoichiometry N” value in data set [1] is 4.

B6: I48A mutant of C41L-PLB (natural protein, dog, UniProt P61012 1-52, looked up)
chain: B1 chain with C41L, I48A
As for B6, in data set [1], the “stoichiometry N” value is 5.

The values are drawn from doi:10.1101/701797 (bioRxiv, 2019).
